Sequences and labels used below:
B1: CPEB3 Ribozyme (parent)
chain: UAACAGGGGGCCACAGCAGAAGCGUUCACGUCGCAGCCCCUGUCAGAUUCUGGUGAAUCUGCGAAUUCUGCUGUAUAUCUC

The data set covers variants of B1. Nature of the data set: self-cleavage, relative activity (ratio to wild type); higher = more cleavage; in vitro, sequencing. Put shortly:
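Barcoded CPEB3 ribozyme mutants, produced by rounds of error-prone PCR, self-cleaved while being transcribed with T7 RNA polymerase for 5 hours at 37°C and during a subsequent 15 min DNase I step before EDTA was added. Sequencing of template-switched cDNA on Illumina gave cleaved and total reads, and DNA sequencing assigned barcodes to variants. Each variant's relative activity is its cleaved/total read fraction divided by the unmutated ribozyme's fraction, averaged across three batches. A variant needed a minimum of 5 reads.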
For the variant UAACAGGGGGCCACAGCAGAAGCGUUCACGUCGCAGCCCCUGUCAGAUUCUGGUGAAUCUGCGAAUUCUGCGGCAUAUCUC [U72G U74C], the self-cleavage was found to be 1.04.
To UAACAGGGGGCCACAGCAGAAGCGUUCACGUCGCAGCCCCUGUCAGAUUCUGGUGAAUCUGCGAAUUCUGCGGUAUAUCCC [U72G U80C] belongs 1.19; to UAACAGGGGGCCACAGCAGAAGCGUUCACGUCGCAGCCCCUGUCAGAUUCUGGUGAAUCUGCGAAUUCUGCGGUAAAUCUC [U72G U76A], 0.54.
As for UAACAGGGGGCCACAGCAGAAGCGUUCACGUCGCAGCCCCUGUCAGAUUCUGGUGAAUCUGCGAAUUCUGCGGUACAUCUC [U72G U76C], the self-cleavage turned out to be 0.97.
To UAACAGGGGGCCACAGCAGAAGCGUUCACGUCGCAGCCCCUGUCAGAUUCUGGUGAAUCUGCGAAUUCUGCGGUAUAUUUC [U72G C79U] belongs 1.21.
To UAACAGGGGGCCACAGCAGAAGCGUUCACGUCGCAGCCCCUGUCAGAUUCUGGUGAAUCUGCGAAUUCUGCCGUAUAUAUC [U72C C79A] belongs 1.3.
To UAACAGGGGGCCACAGCAGAAGCGUUCACGUCGCAGCCCCUGUCAGAUUCUGGUGAAUCUGCGAAUUCUGCCGUAUAUGUC [U72C C79G] belongs 1.05.
With UAACAGGGGGCCACAGCAGAAGCGUUCACGUCGCAGCCCCUGUCAGAUUCUGGUGAAUCUGCGAAUUCUGCCGUAUAUUUC [U72C C79U], the self-cleavage stood at 1.16.
On to UAACAGGGGGCCACAGCAGAAGCGUUCACGUCGCAGCCCCUGUCAGAUUCUGGUGAAUCUGCGAAUUCUGCCGUAUAACUC [U72C U78A], for which the self-cleavage amounted to 1.2.
Regarding UAACAGGGGGCCACAGCAGAAGCGUUCACGUCGCAGCCCCUGUCAGAUUCUGGUGAAUCUGCGAAUUCUGCCGUAUAGCUC [U72C U78G], the self-cleavage was 1.16.
To UAACAGGGGGCCACAGCAGAAGCGUUCACGUCGCAGCCCCUGUCAGAUUCUGGUGAAUCUGCGAAUUCUGCCGUAUACCUC [U72C U78C] belongs 1.15.
To UAACAGGGGGCCACAGCAGAAGCGUUCACGUCGCAGCCCCUGUCAGAUUCUGGUGAAUCUGCGAAUUCUGCGGUAUGUCUC [U72G A77G] belongs 1; to UAACAGGGGGCCACAGCAGAAGCGUUCACGUCGCAGCCCCUGUCAGAUUCUGGUGAAUCUGCGAAUUCUGCGGUAUUUCUC [U72G A77U], 0.71.
Turning to UAACAGGGGGCCACAGCAGAAGCGUUCACGUCGCAGCCCCUGUCAGAUUCUGGUGAAUCUGCGAAUUCUGCGAUAUAUCUC [U72G G73A], the self-cleavage was found to be 1.3.
To UAACAGGGGGCCACAGCAGAAGCGUUCACGUCGCAGCCCCUGUCAGAUUCUGGUGAAUCUGCGAAUUCUGCCGAAUAUCUC [U72C U74A] belongs 1.24; to UAACAGGGGGCCACAGCAGAAGCGUUCACGUCGCAGCCCCUGUCAGAUUCUGGUGAAUCUGCGAAUUCUGCCGCAUAUCUC [U72C U74C], 1.22; to UAACAGGGGGCCACAGCAGAAGCGUUCACGUCGCAGCCCCUGUCAGAUUCUGGUGAAUCUGCGAAUUCUGCCGGAUAUCUC [U72C U74G], 1.25.
To UAACAGGGGGCCACAGCAGAAGCGUUCACGUCGCAGCCCCUGUCAGAUUCUGGUGAAUCUGCGAAUUCUGCCGUAUUUCUC [U72C A77U] belongs 1.21; to UAACAGGGGGCCACAGCAGAAGCGUUCACGUCGCAGCCCCUGUCAGAUUCUGGUGAAUCUGCGAAUUCUGCCGUAUGUCUC [U72C A77G], 1.18; to UAACAGGGGGCCACAGCAGAAGCGUUCACGUCGCAGCCCCUGUCAGAUUCUGGUGAAUCUGCGAAUUCUGCCGUAUAUCUU [U72C C81U], 1.23.
To UAACAGGGGGCCACAGCAGAAGCGUUCACGUCGCAGCCCCUGUCAGAUUCUGGUGAAUCUGCGAAUUCUGCCGUAUAUCUA [U72C C81A] belongs 1.05; to UAACAGGGGGCCACAGCAGAAGCGUUCACGUCGCAGCCCCUGUCAGAUUCUGGUGAAUCUGCGAAUUCUGCGGUAUACCUC [U72G U78C], 1.01; to UAACAGGGGGCCACAGCAGAAGCGUUCACGUCGCAGCCCCUGUCAGAUUCUGGUGAAUCUGCGAAUUCUGCGGUAUAGCUC [U72G U78G], 1.
With UAACAGGGGGCCACAGCAGAAGCGUUCACGUCGCAGCCCCUGUCAGAUUCUGGUGAAUCUGCGAAUUCUGCGGUAUAACUC [U72G U78A], the self-cleavage came out at 1.13.
To UAACAGGGGGCCACAGCAGAAGCGUUCACGUCGCAGCCCCUGUCAGAUUCUGGUGAAUCUGCGAAUUCUGCCGUAUAUCGC [U72C U80G] belongs 1.23; to UAACAGGGGGCCACAGCAGAAGCGUUCACGUCGCAGCCCCUGUCAGAUUCUGGUGAAUCUGCGAAUUCUGCCGUAUAUCCC [U72C U80C], 1.24.
To UAACAGGGGGCCACAGCAGAAGCGUUCACGUCGCAGCCCCUGUCAGAUUCUGGUGAAUCUGCGAAUUCUGCCGUAUAUCAC [U72C U80A] belongs 1.24; to UAACAGGGGGCCACAGCAGAAGCGUUCACGUCGCAGCCCCUGUCAGAUUCUGGUGAAUCUGCGAAUUCUGCCGUAGAUCUC [U72C U76G], 1.23.
To UAACAGGGGGCCACAGCAGAAGCGUUCACGUCGCAGCCCCUGUCAGAUUCUGGUGAAUCUGCGAAUUCUGCCGUAAAUCUC [U72C U76A] belongs 1.23.
As for UAACAGGGGGCCACAGCAGAAGCGUUCACGUCGCAGCCCCUGUCAGAUUCUGGUGAAUCUGCGAAUUCUGCCGUACAUCUC [U72C U76C], the self-cleavage turned out to be 1.16.
To UAACAGGGGGCCACAGCAGAAGCGUUCACGUCGCAGCCCCUGUCAGAUUCUGGUGAAUCUGCGAAUUCUGCGGUAUAUCUC [U72G] belongs 0.98; to UAACAGGGGGCCACAGCAGAAGCGUUCACGUCGCAGCCCCUGUCAGAUUCUGGUGAAUCUGCGAAUUCUGCGGUGUAUCUC [U72G A75G], 1.2.
In the case of UAACAGGGGGCCACAGCAGAAGCGUUCACGUCGCAGCCCCUGUCAGAUUCUGGUGAAUCUGCGAAUUCUGCCAUAUAUCUC [U72C G73A], the self-cleavage is 1.25.
With UAACAGGGGGCCACAGCAGAAGCGUUCACGUCGCAGCCCCUGUCAGAUUCUGGUGAAUCUGCGAAUUCUGCCUUAUAUCUC [U72C G73U], the self-cleavage was 1.48.

Values taken from the RNAGym collection of RNA variant scans (doi:10.1093/nar/gkz1192).
